Source: patent publication US20050222390A1 (IMMATICS BIOTECHNOLOGIES, published 2005)

B1: SVASTITGV (adipose differentiation-related protein 129-137) (peptide)
peptide: SVASTITGV
notes: Also synthesized (Fmoc) for tetramers and pulsing; also called adipophilin-peptide; adipophilin fragment
B2: ALLNIKVKL (keratin 18 365-373) (peptide)
peptide: ALLNIKVKL
notes: Found in tumors of both patients RCC01 and RCC13; also called keratin 18 peptide
B3: YVDPVITSI (met proto-oncogen 654-662) (peptide)
peptide: YVDPVITSI
notes: Found in tumors of both patients RCC01 and RCC13; also synthesized (Fmoc) for tetramers and pulsing; also called c-Met-peptide; c-Met-protooncogene-fragment

Molecular target: T1, recombinant HLA-A*0201-molecules (human)
T1 construct: Folded in vitro with the peptides, purified by gel filtration
Test: in vitro folding of HLA-A*0201 with peptide, gel filtration

Row | Binder | binding result
1 | B1 | binds
2 | B2 | binds
3 | B3 | binds
